Assay results from paper PMC10786891, “Massively parallel profiling of RNA-targeting CRISPR-Cas13d”.

T1: EsCas13d, nuclease-dead (Eubacterium siraeum, UniProt B0MS50, R295A;H300A;R849A;H854A)
T1 sequence: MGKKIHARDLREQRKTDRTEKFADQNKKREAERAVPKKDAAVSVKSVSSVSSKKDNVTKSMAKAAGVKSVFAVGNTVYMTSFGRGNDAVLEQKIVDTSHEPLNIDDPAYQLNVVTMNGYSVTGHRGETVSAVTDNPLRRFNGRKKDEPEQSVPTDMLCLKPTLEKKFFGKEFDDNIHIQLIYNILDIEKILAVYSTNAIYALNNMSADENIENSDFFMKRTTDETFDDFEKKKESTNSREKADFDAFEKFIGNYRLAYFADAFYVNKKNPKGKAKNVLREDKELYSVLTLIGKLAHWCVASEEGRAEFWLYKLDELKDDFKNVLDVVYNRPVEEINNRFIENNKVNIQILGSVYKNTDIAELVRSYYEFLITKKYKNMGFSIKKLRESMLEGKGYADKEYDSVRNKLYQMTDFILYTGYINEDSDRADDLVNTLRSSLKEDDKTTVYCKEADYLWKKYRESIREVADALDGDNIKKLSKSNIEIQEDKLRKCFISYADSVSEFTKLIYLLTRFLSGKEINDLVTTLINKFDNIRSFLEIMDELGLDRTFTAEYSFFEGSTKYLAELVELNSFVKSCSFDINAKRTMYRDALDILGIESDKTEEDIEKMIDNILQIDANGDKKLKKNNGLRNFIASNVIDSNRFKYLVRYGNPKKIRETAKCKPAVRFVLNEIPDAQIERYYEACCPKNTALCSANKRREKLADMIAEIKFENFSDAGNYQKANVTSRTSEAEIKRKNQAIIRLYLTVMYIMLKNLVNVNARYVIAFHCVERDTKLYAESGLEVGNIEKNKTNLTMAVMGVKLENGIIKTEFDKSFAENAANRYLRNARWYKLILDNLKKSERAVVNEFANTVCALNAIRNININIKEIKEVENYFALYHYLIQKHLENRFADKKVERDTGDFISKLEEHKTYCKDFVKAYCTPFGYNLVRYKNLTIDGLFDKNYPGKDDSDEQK


Biological target: T1, EsCas13d, nuclease-dead
Test: crRNA (strand 1, pre-loaded); Mg2+; 40 mM Tris-HCl pH 7.5, 150 mM NaCl, 6 mM MgCl2, 1 mM DTT, 0.1% Tween-20, 0.2 mg/ml BSA; 25 C; 10 min per concentration, then washed
Details: tags: His6-TwinStrep-SUMO cleaved; N-terminal SNAP kept (SNAP-Surface 488); label: 3' end held by stalled T7 RNA polymerase

Binder	Kd [nM]
target 3 insG 3' of 16,insU 3' of 3 (mixed) RNA 1: CACCCGUGCAAAAUUGCAGGGGUCUAAAACGACCUGAAUAUUUCAGAUCAAA RNA 2: GGGAAUGGAUCCACAUCUACGAAUUCGUUUUUGAUCGUGAAAUAUUCAGGUUCUGCAGAUCGGAAGAGCACACGU	~71
target 3 C6U,U8G (mixed) RNA 1: CACCCGUGCAAAAUUGCAGGGGUCUAAAACGACCUGAAUAUUUCAGAUCAAA RNA 2: GGGAAUGGAUCCACAUCUACGAAUUCGUUUUUGAUCUGAAAUAGUUAGGUCUGCAGAUCGGAAGAGCACACGU	44.1 ± 3.35
target 3 U2G,U10G (mixed) RNA 1: CACCCGUGCAAAAUUGCAGGGGUCUAAAACGACCUGAAUAUUUCAGAUCAAA RNA 2: GGGAAUGGAUCCACAUCUACGAAUUCGUUUUUGAUCUGAAAGAUUCAGGGCUGCAGAUCGGAAGAGCACACGU	~105
target 3 insA 3' of 8,insG 3' of 6 (mixed) RNA 1: CACCCGUGCAAAAUUGCAGGGGUCUAAAACGACCUGAAUAUUUCAGAUCAAA RNA 2: GGGAAUGGAUCCACAUCUACGAAUUCGUUUUUGAUCUGAAAUAUAUCGAGGUCUGCAGAUCGGAAGAGCACACGU	45.5 ± 4.5
target 3 G3A,U22A (mixed) RNA 1: CACCCGUGCAAAAUUGCAGGGGUCUAAAACGACCUGAAUAUUUCAGAUCAAA RNA 2: GGGAAUGGAUCCACAUCUACGAAUUCGUUAUUGAUCUGAAAUAUUCAGAUCUGCAGAUCGGAAGAGCACACGU	47 ± 10.5
target 3 insG 3' of 5,insG 3' of 2 (mixed) RNA 1: CACCCGUGCAAAAUUGCAGGGGUCUAAAACGACCUGAAUAUUUCAGAUCAAA RNA 2: GGGAAUGGAUCCACAUCUACGAAUUCGUUUUUGAUCUGAAAUAUUCAGGGUGCUGCAGAUCGGAAGAGCACACGU	26.6 ± 4.1
target 3 insG 3' of 5,insC 3' of 5 (mixed) RNA 1: CACCCGUGCAAAAUUGCAGGGGUCUAAAACGACCUGAAUAUUUCAGAUCAAA RNA 2: GGGAAUGGAUCCACAUCUACGAAUUCGUUUUUGAUCUGAAAUAUUCAGCGGUCUGCAGAUCGGAAGAGCACACGU	32.7 ± 4.05
target 3 insG 3' of 8,insC 3' of 7 (mixed) RNA 1: CACCCGUGCAAAAUUGCAGGGGUCUAAAACGACCUGAAUAUUUCAGAUCAAA RNA 2: GGGAAUGGAUCCACAUCUACGAAUUCGUUUUUGAUCUGAAAUAUGUCCAGGUCUGCAGAUCGGAAGAGCACACGU	57 ± 9
target 3 A5U,A11G (mixed) RNA 1: CACCCGUGCAAAAUUGCAGGGGUCUAAAACGACCUGAAUAUUUCAGAUCAAA RNA 2: GGGAAUGGAUCCACAUCUACGAAUUCGUUUUUGAUCUGAAGUAUUCUGGUCUGCAGAUCGGAAGAGCACACGU	100 ± 45
target 3 G4A,C6U (mixed) RNA 1: CACCCGUGCAAAAUUGCAGGGGUCUAAAACGACCUGAAUAUUUCAGAUCAAA RNA 2: GGGAAUGGAUCCACAUCUACGAAUUCGUUUUUGAUCUGAAAUAUUUAAGUCUGCAGAUCGGAAGAGCACACGU	15.7 ± 1.25
target 3 C6U,U22A (mixed) RNA 1: CACCCGUGCAAAAUUGCAGGGGUCUAAAACGACCUGAAUAUUUCAGAUCAAA RNA 2: GGGAAUGGAUCCACAUCUACGAAUUCGUUAUUGAUCUGAAAUAUUUAGGUCUGCAGAUCGGAAGAGCACACGU	13.3 ± 1.4
target 3 insC 3' of 8,insG 3' of 5 (mixed) RNA 1: CACCCGUGCAAAAUUGCAGGGGUCUAAAACGACCUGAAUAUUUCAGAUCAAA RNA 2: GGGAAUGGAUCCACAUCUACGAAUUCGUUUUUGAUCUGAAAUAUCUCAGGGUCUGCAGAUCGGAAGAGCACACGU	120 ± 50
target 3 insG 3' of 9,insU 3' of 3 (mixed) RNA 1: CACCCGUGCAAAAUUGCAGGGGUCUAAAACGACCUGAAUAUUUCAGAUCAAA RNA 2: GGGAAUGGAUCCACAUCUACGAAUUCGUUUUUGAUCUGAAAUAGUUCAGGUUCUGCAGAUCGGAAGAGCACACGU	43.5 ± 7
target 3 U2A,G4U (mixed) RNA 1: CACCCGUGCAAAAUUGCAGGGGUCUAAAACGACCUGAAUAUUUCAGAUCAAA RNA 2: GGGAAUGGAUCCACAUCUACGAAUUCGUUUUUGAUCUGAAAUAUUCAUGACUGCAGAUCGGAAGAGCACACGU	1.98 ± 0.2
target 3 insC 3' of 7 (mixed) RNA 1: CACCCGUGCAAAAUUGCAGGGGUCUAAAACGACCUGAAUAUUUCAGAUCAAA RNA 2: GGGAAUGGAUCCACAUCUACGAAUUCGUUUUUGAUCUGAAAUAUUCCAGGUCUGCAGAUCGGAAGAGCACACGU	90.5 ± 20.5
target 3 U2C,U7A (mixed) RNA 1: CACCCGUGCAAAAUUGCAGGGGUCUAAAACGACCUGAAUAUUUCAGAUCAAA RNA 2: GGGAAUGGAUCCACAUCUACGAAUUCGUUUUUGAUCUGAAAUAUACAGGCCUGCAGAUCGGAAGAGCACACGU	77 ± 23
target 3 G3A,G4U (mixed) RNA 1: CACCCGUGCAAAAUUGCAGGGGUCUAAAACGACCUGAAUAUUUCAGAUCAAA RNA 2: GGGAAUGGAUCCACAUCUACGAAUUCGUUUUUGAUCUGAAAUAUUCAUAUCUGCAGAUCGGAAGAGCACACGU	8.95 ± 0.95
target 3 G4C,U7A (mixed) RNA 1: CACCCGUGCAAAAUUGCAGGGGUCUAAAACGACCUGAAUAUUUCAGAUCAAA RNA 2: GGGAAUGGAUCCACAUCUACGAAUUCGUUUUUGAUCUGAAAUAUACACGUCUGCAGAUCGGAAGAGCACACGU	27.6 ± 3.05
target 3 insA 3' of 19 (mixed) RNA 1: CACCCGUGCAAAAUUGCAGGGGUCUAAAACGACCUGAAUAUUUCAGAUCAAA RNA 2: GGGAAUGGAUCCACAUCUACGAAUUCGUUUUUGAAUCUGAAAUAUUCAGGUCUGCAGAUCGGAAGAGCACACGU	83 ± 21.5
target 3 insC 3' of 4,insC 3' of 3 (mixed) RNA 1: CACCCGUGCAAAAUUGCAGGGGUCUAAAACGACCUGAAUAUUUCAGAUCAAA RNA 2: GGGAAUGGAUCCACAUCUACGAAUUCGUUUUUGAUCUGAAAUAUUCAGCGCUCUGCAGAUCGGAAGAGCACACGU	22.9 ± 2.65
target 3 insG 3' of 22,insA 3' of 2 (mixed) RNA 1: CACCCGUGCAAAAUUGCAGGGGUCUAAAACGACCUGAAUAUUUCAGAUCAAA RNA 2: GGGAAUGGAUCCACAUCUACGAAUUCGUUUGUUGAUCUGAAAUAUUCAGGUACUGCAGAUCGGAAGAGCACACGU	72 ± 21
target 3 insA 3' of 22,insU 3' of 16 (mixed) RNA 1: CACCCGUGCAAAAUUGCAGGGGUCUAAAACGACCUGAAUAUUUCAGAUCAAA RNA 2: GGGAAUGGAUCCACAUCUACGAAUUCGUUUAUUGAUCUUGAAAUAUUCAGGUCUGCAGAUCGGAAGAGCACACGU	71 ± 14
target 3 G3A,G4A (mixed) RNA 1: CACCCGUGCAAAAUUGCAGGGGUCUAAAACGACCUGAAUAUUUCAGAUCAAA RNA 2: GGGAAUGGAUCCACAUCUACGAAUUCGUUUUUGAUCUGAAAUAUUCAAAUCUGCAGAUCGGAAGAGCACACGU	8.7 ± 0.75
target 3 insC 3' of 20,insA 3' of 6 (mixed) RNA 1: CACCCGUGCAAAAUUGCAGGGGUCUAAAACGACCUGAAUAUUUCAGAUCAAA RNA 2: GGGAAUGGAUCCACAUCUACGAAUUCGUUUUUCGAUCUGAAAUAUUCAAGGUCUGCAGAUCGGAAGAGCACACGU	105 ± 43.5
target 3 U21A (mixed) RNA 1: CACCCGUGCAAAAUUGCAGGGGUCUAAAACGACCUGAAUAUUUCAGAUCAAA RNA 2: GGGAAUGGAUCCACAUCUACGAAUUCGUUUAUGAUCUGAAAUAUUCAGGUCUGCAGAUCGGAAGAGCACACGU	35.5 ± 4
target 1 U8C,A18U (mixed) RNA 1: CACCCGUGCAAAAAUGCAGGGGUCUAAAACUGAGCGGAUAACCUCUCUAUGG RNA 2: GGGAAUGGAUCCACAUCUACGAAUUCGUACCAUUGAGAGGUUACCCGCUCACCGAGAUCGGAAGAGCACACGU	43 ± 4
target 1 C2A,A14G (mixed) RNA 1: CACCCGUGCAAAAAUGCAGGGGUCUAAAACUGAGCGGAUAACCUCUCUAUGG RNA 2: GGGAAUGGAUCCACAUCUACGAAUUCGUACCAUAGAGGGGUUAUCCGCUAACCGAGAUCGGAAGAGCACACGU	13.5 ± 0.5
target 1 A9G,U10C (mixed) RNA 1: CACCCGUGCAAAAAUGCAGGGGUCUAAAACUGAGCGGAUAACCUCUCUAUGG RNA 2: GGGAAUGGAUCCACAUCUACGAAUUCGUACCAUAGAGAGGUCGUCCGCUCACCGAGAUCGGAAGAGCACACGU	27.2 ± 1.4
